Measurements taken from patent US20140030245.

Molecular target: T1, Myc-tagged Chk1 C-terminal fragment C5, O14757
T1 chain: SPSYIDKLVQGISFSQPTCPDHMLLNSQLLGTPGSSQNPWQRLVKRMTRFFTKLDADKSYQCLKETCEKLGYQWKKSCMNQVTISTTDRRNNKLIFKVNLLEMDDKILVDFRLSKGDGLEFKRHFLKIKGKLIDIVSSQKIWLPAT

B1: endogenous Chk1 (protein)
chain: MAVPFVEDWDLVQTLGEGAYGEVQLAVNRVTEEAVAVKIVDMKRAVDCPENIKKEICINKMLNHENVVKFYGHRREGNIQYLFLEYCSGGELFDRIEPDIGMPEPDAQRFFHQLMAGVVYLHGIGITHRDIKPENLLLDERDNLKISDFGLATVFRYNNRERLLNKMCGTLPYVAPELLKRREFHAEPVDVWSCGIVLTAMLAGELPWDQPSDSCQEYSDWKEKKTYLNPWKKIDSAPLALLHKILVENPSARITIPDIKKDRWYNKPLKKGAKRPRVTSGGVSESPSGFSKHIQSNLDFSPVNSASSEENVKYSSSQPEPRTGLSLWDTSPSYIDKLVQGISFSQPTCPDHMLLNSQLLGTPGSSQNPWQRLVKRMTRFFTKLDADKSYQCLKETCEKLGYQWKKSCMNQVTISTTDRRNNKLIFKVNLLEMDDKILVDFRLSKGDGLEFKRHFLKIKGKLIDIVSSQKVWLPAT
phosphorylation of endogenous Chk1 proteins (immunoblot, HeLa): overexpression of the C5 fragment and to a lesser extent, the entire C-terminus, induced strong phosphorylation of endogenous Chk1 proteins | phosphorylation of endogenous Chk1 under normal growth conditions (immunoblot, HEK293T): expression of the C5 fragment, and to a lesser extent, the C6 fragment, but not other small fragments, induced phosphorylation of endogenous Chk1 under normal growth conditions
